Assay results: patent US20080008707A1, “Denatured collagen peptides and uses thereof” (Cell-Matrix, Inc., priority 2006, published 2008)
Square brackets hold non-standard residues; d marks the D form. Ends that are not written are not given here. Hyp = O=C(O)[C@@H]1C[C@@H](O)CN1

Key:
[1] = system: D93 binding to human denatured-collagen IV; experiment: Competition ELISA: synthetic peptides blocking D93 binding to heat denatured collagen IV; conditions: average of two studies, vs 1% BSA/PBS alone
Description: (§1) The ELISA was conducted as follows: wells of a 96-well microtiter plate (Immulon, 4 HBX flat-bottomed, Thermo Electron Corporation, Waltham, Mass.) were coated with 100 μL/well of dn-collagen IV at 10 μg/mL in Phosphate Buffered Saline (PBS) overnight at 4° C. The plate was washed 3 times (3×) with PBS containing 0.05% (v/v) Tween-20 (PBST) using an automated plate washer.
(§2) The plate was blocked by adding 300 μL/well of 1% BSA (w/v) in PBS for 1 hour at 25° C. followed by washing 3× in PBST as above.
(§3) Solutions of D93 or HUI77 were prepared with various concentrations of peptide or antibody inhibitor and incubate for 15 minutes. D93 or HUI77 was prepared at 200 ng/mL in 1% BSA/PBS.
(§4) For antibody blocking studies using synthetic peptides: peptide inhibitor stock solutions were prepared at 2 mM, 0.2 mM, 0.02 mM, and 0.002 mM in 1% BSA/PBS. 500 μL of a 2 mM peptide solution in 1% BSA/PBS was prepared and diluted 1:10 in 500 μL a total of three times to make peptide inhibitor concentrations.
(§5) 200 μL of D93 or HUI77 at 200 ng/mL solution was combined with 200 μL of peptide or antibody inhibitor solution and incubated for 15 minutes at room temperature.
(§6) D93 or HUI77 with various concentrations of inhibitors (2 mM, 0.2 mM, 0.02 mM, and 0.002 mM) were added to microplate wells and incubated for 1 hour at 25° C. The plate was washed 3× in PBST as above.
(§7) To each microtiter plate well, 100 μL of diluted anti-human IgG or anti-mouse IgM conjugated to horseradish peroxidase (HRP) in PBST was added and incubated for one hour at 25° C.: (a) for D93: Goat anti-human IgG-HRP (Jackson ImmunoResearch, Catalog No. 109-035-088) was used at 1:20,000 and (b) for HUI77: Goat anti-mouse IgM-HRP was used at 1:4,000. Plates were washed 3× in PBST as above.
(§8) Tetramethylbenzidine (TMB) substrate (100 μL; Pierce Chemicals)) was added to wells and the plates were allowed to develop at room temperature for 15 minutes in the dark. Substrate development was stopped by adding 50 μL/well of 2N H2SO4. The microtiter […] plates were read at 450 nm within five minutes of adding the H2SO4. Reactivity was measured with a microplate reader (Molecular Devices, Sunnyvale, Calif.) at a wavelength of 450 nm and analyzed using SOFTMax® PRO4.0 (Molecular Devices). All samples were tested in triplicate.
(§9) Individual peptides with amino acid substitutions and deletions were also synthesized based on the primary and secondary peptide arrays. […] The inhibitory activity of the individual peptides was tested by ELISA as previously described to measure binding of D93 or HUI77 to denatured collagen where peptides and antibodies were prepared at a 2× concentration and pre-incubated for 15 minutes prior to adding to microtiter plates coated with dn-collagen.
(§10) 96-well plates were coated with 100 μL/well of denatured (dn) collagen IV at 10 μg/mL in phosphate buffered saline (PBS) overnight at 4° C. followed by washing the plates in an automated plate washer 3 times in PBS containing 0.05% (v/v) Tween-20 (PBST). Non-specific binding was prevented by blocking the wells by adding 300 μL/well of 1% bovine serum albumin (BSA) (w/v) in PBS for 1 hour (hr) at 25° C. The plates were washed as above.
(§11) Solutions of D93 and HUI77 antibodies were prepared with various concentrations of inhibitor and incubated for 15 minutes. Briefly, 20 mLs of D93 or HUI77 were prepared at 200 ng/mL in 1% BSA/PBS. Solutions of peptide inhibitors (2 mM, 0.2 mM, […]) were prepared in 1% BSA/PBS. Equal volumes of antibodies and peptide inhibitors were combined: 200 μL of D93 or HUI77 (200 ng/mL solution) with 200 μL of each peptide solution.
(§12) 100 μL/well of D93 or HUI77 at 100 ng/mL with various concentrations of inhibitors were added to the wells in triplicate and incubated for 1 hour at 25° C. The plates were washed as described above.
(§13) 100 μL/well of secondary horseradish peroxidase (HRP)-conjugated antibody in PBST was added to each well and incubated for 1 hour (hr) at 25° C. […]

[2] = system: HUI77 binding to denatured collagen IV; experiment: Competition ELISA: synthetic peptides blocking HUI77 binding to heat denatured collagen IV; parameters: species or system human; conditions: average of two studies
Description: as §1, §2, §3, §4, §5, §6, §7, §8, §9, §10, §11, §12, §13

[3] = target: HUI77, murine IgM anti-denatured-collagen monoclonal antibody; experiment: competition ELISA on coated dn-collagen IV
[4] = target: D93, recombinant humanized IgG1 kappa antibody targeting denatured-collagen; experiment: competition ELISA on coated human dn-collagen IV
D93, recombinant humanized IgG1 kappa antibody targeting denatured-collagen, sequence (heavy, as listed by the source, chain 1 of 2): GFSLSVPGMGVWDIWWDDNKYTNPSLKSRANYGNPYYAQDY
D93, recombinant humanized IgG1 kappa antibody targeting denatured-collagen, sequence (light, as listed by the source, chain 2 of 2): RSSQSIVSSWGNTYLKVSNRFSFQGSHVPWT

[5] = peptide inhibitor concentration 1 μM
[6] = peptide inhibitor concentration 10 μM
[7] = peptide inhibitor concentration 100 μM
[8] = peptide inhibitor concentration 1000 μM

Row | % INHIBITION OF BINDING OF D93 TO HUMAN DENATURED-COLLAGEN IV [1, 5] [%] | % INHIBITION OF BINDING OF D93 TO HUMAN DENATURED-COLLAGEN IV [1, 6] [%] | % INHIBITION OF BINDING OF D93 TO HUMAN DENATURED-COLLAGEN IV [1, 7] [%] | % INHIBITION OF BINDING OF D93 TO HUMAN DENATURED-COLLAGEN IV [1, 8] [%] | % INHIBITION OF BINDING OF HUI77 TO DENATURED COLLAGEN IV [2, 6] [%] | % INHIBITION OF BINDING OF HUI77 TO DENATURED COLLAGEN IV [2, 7] [%] | % INHIBITION OF BINDING OF HUI77 TO DENATURED COLLAGEN IV [2, 8] [%] | % inhibition of HUI77 binding to dn-collagen IV, peptide 10 µM [3] [%] | % inhibition of HUI77 binding to dn-collagen IV, peptide 100 µM [3] [%] | % inhibition of HUI77 binding to dn-collagen IV, peptide 1000 µM [3] [%] | % inhibition of D93 binding to dn-collagen IV, peptide 1 µM [4] [%] | % inhibition of D93 binding to dn-collagen IV, peptide 10 µM [4] [%] | % inhibition of D93 binding to dn-collagen IV, peptide 100 µM [4] [%] | % inhibition of D93 binding to dn-collagen IV, peptide 1000 µM [4] [%] | Molecule
1 | 11.5 | 40.5 | 87.5 | 93.5 | 10.5 | 12.5 | 63 |  |  |  |  |  |  |  | PGPPGPPGP (PGP[Hyp]GP[Hyp]GP) [SEQ ID NO: 29]
2 | 33.5 | 83 | 93.5 | 93.5 | 7 | 16 | 86.5 |  |  |  |  |  |  |  | PGPPGPPGPY (PGP[Hyp]GP[Hyp]GPY) [SEQ ID NO: 28]
3 |  |  |  |  |  |  |  | 6.5 | 9 | 14 | 9.5 | 6.5 | 11 | 52 | synthetic peptide No. 21, GPPG (SEQ ID NO: 34)
4 |  |  |  |  |  |  |  | 7 | 14.5 | 75 | 10.5 | 6 | 8 | 32 | L[Hyp]GF[Hyp]G [synthetic peptide No. 19, LPGFPG (SEQ ID NO: 23)]
5 |  |  |  |  |  |  |  | 8 | 10.5 | 8.5 | 9.5 | 3.5 | 2.5 | 13.5 | L[Hyp]GS[Hyp]G [synthetic peptide No. 10, LPGSPG (SEQ ID NO: 26)]
6 |  |  |  |  |  |  |  | 3 | 8 | 64 | 6.5 | 12 | 52.5 | 90 | L[Hyp]GP[Hyp]G [synthetic peptide No. 16, LPGPPG (SEQ ID NO: 24)]
7 |  |  |  |  |  |  |  | 10.5 | 12.5 | 63 | 11.5 | 40.5 | 87.5 | 93.5 | PGP[Hyp]GP[Hyp]GP [synthetic peptide No. 1, … (SEQ ID NO: 29)]
